# Source: patent US20160264649A1
# Key:
# Assay in all cases: cell-based or functional assay
# [1] = biological target: HIV-1 TRO.11 (Acute) Env on pseudovirus (HIV-1)
# [2] = biological target: HIV-1 6535.3 (Acute) Env on pseudovirus (HIV-1)
# [3] = biological target: HIV-1 MGRM-F1-014 Env (HIV-1)
# [4] = biological target: HIV-1 MGRM-G-024 Env (HIV-1)
# [5] = biological target: HIV-1 LAVI_C3 Env on pseudovirus (HIV-1)
# [6] = biological target: HIV-1 92TH021 Env (HIV-1)
# [7] = biological target: HIV-1 MGRM-C-005 Env on pseudovirus (HIV-1)
# [8] = biological target: HIV-1 98CN006 Env on pseudovirus (HIV-1)
# [9] = biological target: HIV-1 PVO.4 (Acute) Env on pseudovirus (HIV-1)
# [10] = biological target: HIV-1 MGRM-Chronic-B-003 Env on pseudovirus (HIV-1)
# [11] = biological target: HIV-1 MGRM-AG-002 Env (HIV-1)
# [12] = biological target: HIV-1 IAVI-C18 Env (HIV-1)
# [13] = biological target: HIV-1 98CN009 Env on pseudovirus (HIV-1)
# [14] = biological target: HIV-1 MGRM-D-022 Env (HIV-1)
# [15] = biological target: HIV-1 MGRM-AG-008 Env (HIV-1)
# [16] = biological target: HIV-1 MGRM-AG-003 Env (HIV-1)
# [17] = biological target: HIV-1 MGRM-Chronic-B-010 Env on pseudovirus (HIV-1)
# [18] = biological target: HIV-1 MGRM-AE-001 Env (HIV-1)
# [19] = biological target: HIV-1 MGRM-AE-004 Env (HIV-1)
# [20] = biological target: HIV-1 MGRM-F1-012 Env (HIV-1)
# [21] = biological target: HIV-1 IAVI-C22 Env (HIV-1)
# [22] = biological target: HIV-1 MGRM-AG-001 Env (HIV-1)
# [23] = biological target: HIV-1 MGRM-Chronic-B-001 Env on pseudovirus (HIV-1)
# [24] = biological target: HIV-1 LAVIC_18 Env on pseudovirus (HIV-1)
# [25] = biological target: HIV-1 MGRM-C-024 Env on pseudovirus (HIV-1)
# [26] = biological target: HIV-1 MGRM-G-004 Env (HIV-1)
# [27] = biological target: HIV-1 MGRM-C-014 Env on pseudovirus (HIV-1)
# [28] = biological target: HIV-1 MGRM-D-026 Env (HIV-1)
# [29] = biological target: HIV-1 MGRM-F1-010 Env (HIV-1)
# [30] = biological target: HIV-1 94UG103 Env (HIV-1)
# [31] = biological target: aMLV envelope
# [32] = biological target: HIV-1 VLGCB3 Env on pseudovirus (HIV-1)
# [33] = biological target: HIV-1 MGRM-G-019 Env (HIV-1)
# [34] = biological target: HIV-1 MGRM-C-012 Env on pseudovirus (HIV-1)
# [35] = biological target: HIV-1 MGRM-AG-006 Env (HIV-1)
# [36] = biological target: HIV-1 MGRM-F1-008 Env (HIV-1)
# [37] = biological target: HIV-1 MGRM-F1-022 Env (HIV-1)
# [38] = biological target: HIV-1 MGRM-F1-020 Env (HIV-1)
# [39] = biological target: HIV-1 MGRM-C-001 Env on pseudovirus (HIV-1)
# [40] = biological target: HIV-1 MGRM-AE-008 Env (HIV-1)
# [41] = biological target: HIV-1 MGRM-C-022 Env on pseudovirus (HIV-1)
# [42] = biological target: HIV-1 MGRM-D-021 Env (HIV-1)
# [43] = biological target: HIV-1 CMU02 Env (HIV-1)
# [44] = biological target: HIV-1 APV_17 Env on pseudovirus (HIV-1)
# [45] = biological target: HIV-1 92BR020 Env on pseudovirus (HIV-1)
# [46] = biological target: HIV-1 MGRM-D-005 Env (HIV-1)
# [47] = biological target: HIV-1 MGRM-D-014 Env (HIV-1)
# [48] = biological target: HIV-1 MGRM-C-002 Env on pseudovirus (HIV-1)
# [49] = biological target: HIV-1 NL43 Env on pseudovirus (HIV-1)
# [50] = biological target: HIV-1 MGRM-C-017 Env on pseudovirus (HIV-1)
# [51] = biological target: HIV-1 MGRM-C-013 Env on pseudovirus (HIV-1)
# 1443_C16 (PG16) (TCN-116) (antibody), sequence (VH): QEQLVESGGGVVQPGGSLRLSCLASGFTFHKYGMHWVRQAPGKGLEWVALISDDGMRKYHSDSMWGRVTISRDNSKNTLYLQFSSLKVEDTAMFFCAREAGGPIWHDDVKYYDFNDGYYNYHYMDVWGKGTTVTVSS
# 1443_C16 (PG16) (TCN-116) (antibody), sequence (VL): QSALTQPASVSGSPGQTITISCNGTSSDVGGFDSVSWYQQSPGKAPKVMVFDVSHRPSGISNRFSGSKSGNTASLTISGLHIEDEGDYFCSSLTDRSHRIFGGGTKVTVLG
substance,measurement,setting,value
1495_C14 (PGC14) (antibody),IC50,[1],> 50 µg/mL
same,IC50,[2],35 µg/mL
same,IC50 (pseudovirus neutralization),[3],> 50 µg/mL
same,"IC50 (µg/ml), pseudovirus neutralization",[4],> 50 µg/mL
same,IC50,[5],12 µg/mL
same,"IC50 (µg/ml), pseudovirus neutralization",[6],> 50 µg/mL
same,neutralization IC50,[6],> 50 µg/mL
same,IC50,[7],> 50 µg/mL
same,IC50,[8],> 50 µg/mL
same,IC50,[9],> 50 µg/mL
same,IC50,[10],> 50 µg/mL
same,"IC50 (µg/ml), pseudovirus neutralization",[11],> 50 µg/mL
same,neutralization IC50,[12],> 50 µg/mL
same,IC50,[13],43 µg/mL
same,"IC50 (µg/ml), pseudovirus neutralization",[14],> 50 µg/mL
same,"IC50 (µg/ml), pseudovirus neutralization",[15],45 µg/mL
same,"IC50 (µg/ml), pseudovirus neutralization",[16],> 50 µg/mL
same,IC50,[17],27 µg/mL
same,"IC50 (µg/ml), pseudovirus neutralization",[18],> 50 µg/mL
same,"IC50 (µg/ml), pseudovirus neutralization",[19],> 50 µg/mL
same,IC50 (pseudovirus neutralization),[20],> 50 µg/mL
same,neutralization IC50,[21],9.5 µg/mL
same,"IC50 (µg/ml), pseudovirus neutralization",[22],> 50 µg/mL
same,IC50,[23],> 50 µg/mL
same,IC50,[24],> 50 µg/mL
same,IC50,[25],> 50 µg/mL
same,"IC50 (µg/ml), pseudovirus neutralization",[26],> 50 µg/mL
same,IC50,[27],> 50 µg/mL
same,"IC50 (µg/ml), pseudovirus neutralization",[28],> 50 µg/mL
same,IC50 (pseudovirus neutralization),[29],> 50 µg/mL
same,neutralization IC50,[30],> 50 µg/mL
same,neutralization IC50,[31],> 50 µg/mL
same,IC50,[32],21 µg/mL
same,"IC50 (µg/ml), pseudovirus neutralization",[33],> 50 µg/mL
same,IC50,[34],> 50 µg/mL
same,"IC50 (µg/ml), pseudovirus neutralization",[35],> 50 µg/mL
same,IC50 (pseudovirus neutralization),[36],> 50 µg/mL
same,IC50 (pseudovirus neutralization),[37],> 50 µg/mL
same,IC50 (pseudovirus neutralization),[38],> 50 µg/mL
same,IC50,[39],> 50 µg/mL
same,"IC50 (µg/ml), pseudovirus neutralization",[40],> 50 µg/mL
same,IC50,[41],> 50 µg/mL
same,"IC50 (µg/ml), pseudovirus neutralization",[42],> 50 µg/mL
same,"IC50 (µg/ml), pseudovirus neutralization",[43],> 50 µg/mL
same,neutralization IC50,[43],> 50 µg/mL
same,IC50,[44],> 50 µg/mL
same,IC50,[45],4 µg/mL
same,"IC50 (µg/ml), pseudovirus neutralization",[46],> 50 µg/mL
same,"IC50 (µg/ml), pseudovirus neutralization",[47],48 µg/mL
same,IC50,[48],> 50 µg/mL
same,IC50,[49],40 µg/mL
same,IC50,[50],> 50 µg/mL
same,IC50,[51],> 50 µg/mL
1443_C16 (PG16) (TCN-116) (antibody),IC50,[1],0.22 µg/mL
same,IC50,[2],36.9 µg/mL
same,IC50 (pseudovirus neutralization),[3],0.01 µg/mL
same,"IC50 (µg/ml), pseudovirus neutralization",[4],0.01 µg/mL
same,IC50,[5],9.55 µg/mL
same,"IC50 (µg/ml), pseudovirus neutralization",[6],0.1 µg/mL
same,neutralization IC50,[6],0.127 µg/mL
same,neutralization IC90,[6],23.4 µg/mL
same,IC50,[7],2.55 µg/mL
same,IC50,[8],> 50 µg/mL
same,IC50,[9],5.43 µg/mL
same,IC50,[10],0.19 µg/mL
same,"IC50 (µg/ml), pseudovirus neutralization",[11],0.03 µg/mL
same,neutralization IC50,[12],0.0067 µg/mL
same,neutralization IC90,[12],0.207 µg/mL
same,IC50,[13],5.76 µg/mL
same,"IC50 (µg/ml), pseudovirus neutralization",[14],> 50 µg/mL
same,"IC50 (µg/ml), pseudovirus neutralization",[15],0.002 µg/mL
same,"IC50 (µg/ml), pseudovirus neutralization",[16],> 50 µg/mL
same,IC50,[17],0.01 µg/mL
same,"IC50 (µg/ml), pseudovirus neutralization",[18],4.33 µg/mL
same,"IC50 (µg/ml), pseudovirus neutralization",[19],0.002 µg/mL
same,IC50 (pseudovirus neutralization),[20],0.003 µg/mL
same,neutralization IC50,[21],0.0687 µg/mL
same,neutralization IC90,[21],> 50 µg/mL
same,"IC50 (µg/ml), pseudovirus neutralization",[22],0.03 µg/mL
same,IC50,[23],> 50 µg/mL
same,IC50,[24],0.02 µg/mL
same,IC50,[25],0.04 µg/mL
same,"IC50 (µg/ml), pseudovirus neutralization",[26],> 50 µg/mL
same,IC50,[27],> 50 µg/mL
same,"IC50 (µg/ml), pseudovirus neutralization",[28],> 50 µg/mL
same,IC50 (pseudovirus neutralization),[29],0.01 µg/mL
same,neutralization IC50,[30],0.008 µg/mL
same,neutralization IC90,[30],1.59 µg/mL
same,neutralization IC50,[31],> 50 µg/mL
same,neutralization IC90,[31],> 50 µg/mL
same,IC50,[32],0.4 µg/mL
same,"IC50 (µg/ml), pseudovirus neutralization",[33],1.21 µg/mL
same,IC50,[34],0.48 µg/mL
same,"IC50 (µg/ml), pseudovirus neutralization",[35],> 50 µg/mL
same,IC50 (pseudovirus neutralization),[36],> 50 µg/mL
same,IC50 (pseudovirus neutralization),[37],0.08 µg/mL
same,IC50 (pseudovirus neutralization),[38],4.35 µg/mL
same,IC50,[39],16.8 µg/mL
same,"IC50 (µg/ml), pseudovirus neutralization",[40],3.25 µg/mL
same,IC50,[41],0.25 µg/mL
same,"IC50 (µg/ml), pseudovirus neutralization",[42],> 50 µg/mL
same,"IC50 (µg/ml), pseudovirus neutralization",[43],43.6 µg/mL
same,neutralization IC50,[43],> 50 µg/mL
same,neutralization IC90,[43],> 50 µg/mL
same,IC50,[44],24.8 µg/mL
same,IC50,[45],> 50 µg/mL
same,"IC50 (µg/ml), pseudovirus neutralization",[46],19.7 µg/mL
same,"IC50 (µg/ml), pseudovirus neutralization",[47],0.003 µg/mL
same,IC50,[48],28.3 µg/mL
same,IC50,[49],0.02 µg/mL
same,IC50,[50],1.8 µg/mL
same,IC50,[51],> 50 µg/mL
